Results: US20240059799A1 (Pfizer, published 2024)

T1: full-length human TL1A on CHO-K1 cells (human, UniProt O95150 1-251)
T1 construct: whole, on cells; also called cells over-expressing human TL1A
T1 sequence (looked up): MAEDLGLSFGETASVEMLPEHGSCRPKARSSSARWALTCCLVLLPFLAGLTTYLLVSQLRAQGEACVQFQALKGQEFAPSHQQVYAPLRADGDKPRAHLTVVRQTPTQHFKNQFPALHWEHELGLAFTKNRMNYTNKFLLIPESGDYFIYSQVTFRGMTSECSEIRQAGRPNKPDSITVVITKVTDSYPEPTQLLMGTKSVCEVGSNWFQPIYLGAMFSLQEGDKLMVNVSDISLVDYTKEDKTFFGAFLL

T2: recombinant human TL1A (human, UniProt O95150 71-251)
T2 construct: Homotrimeric cytokine; biotinylated with Sulfo-NHS-biotin where captured for SPR, coated unlabelled in ELISA, soluble in bioassays; also called TNFSF15
T2 chain: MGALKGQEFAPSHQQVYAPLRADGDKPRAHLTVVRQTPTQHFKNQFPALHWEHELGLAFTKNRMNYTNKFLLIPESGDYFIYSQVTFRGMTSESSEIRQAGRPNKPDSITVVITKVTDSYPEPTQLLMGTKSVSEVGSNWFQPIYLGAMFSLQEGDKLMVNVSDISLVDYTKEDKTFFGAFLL


Columns and labels:
[1] = target: T1, full-length human TL1A on CHO-K1 cells; assay: flow cytometry on CHO-K1 cells stably expressing full-length human TL1A, PE anti-human IgG, median fluorescent intensity
Protocol: A cell binding assay was performed to examine if the panel of [xTL1A] bivalent antibody variants could bind to human TL1A over-expressed on the cell surface. […] [xTL1A] bivalent antibody variants were incubated with cells on ice for 30-60 minutes at a concentration of either 1 μg/mL or 20 μg/mL. Cells were pelleted by centrifugation at 1500 RPM for 5 minutes at 4° C. and supernatant was discarded by aspiration. The cells were washed three times with DPBS with 4% FBS buffer as described. Cells were resuspended in 100 μL of PE-anti-human IgG (Life technologies Catalog number H10104) diluted 1:500 in DPBS with 4% FBS buffer and incubated on ice for 15 minutes. Cells were washed three times as described and resuspended in 200 μL of DPBS with 4% FBS buffer, then run on a flow cytometry instrument.

[2] = target: T2, recombinant human TL1A; assay: SPR, recombinant human TL1A
[3] = target: T3, bovine serum albumin (bovine, UniProt P02769 25-607); assay: direct binding ELISA on plate-coated BSA (1 ug/mL), anti-human IgG-Fc HRP, OD450
T3 construct: also called BSA
T3 sequence (P02769 25-607 limits assumed): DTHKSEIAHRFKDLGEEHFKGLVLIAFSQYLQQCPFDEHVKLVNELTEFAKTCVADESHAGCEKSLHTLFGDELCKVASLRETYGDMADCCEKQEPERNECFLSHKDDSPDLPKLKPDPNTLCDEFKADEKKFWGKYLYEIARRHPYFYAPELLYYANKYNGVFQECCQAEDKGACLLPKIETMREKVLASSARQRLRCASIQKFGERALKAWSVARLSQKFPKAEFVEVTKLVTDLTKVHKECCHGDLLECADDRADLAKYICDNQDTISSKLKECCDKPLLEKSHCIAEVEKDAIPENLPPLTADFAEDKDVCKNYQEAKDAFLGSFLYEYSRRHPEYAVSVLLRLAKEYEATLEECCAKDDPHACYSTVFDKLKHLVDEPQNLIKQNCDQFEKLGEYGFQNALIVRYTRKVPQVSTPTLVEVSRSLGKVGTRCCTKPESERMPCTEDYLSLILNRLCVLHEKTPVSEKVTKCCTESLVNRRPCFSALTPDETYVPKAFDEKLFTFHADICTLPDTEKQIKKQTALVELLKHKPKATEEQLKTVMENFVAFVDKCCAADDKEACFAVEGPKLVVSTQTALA
Protocol: (§1) For the direct binding ELISA method to HSA or BSA, 96-well high binding plates (Corning, product number 3590) were coated with 1 μg/mL recombinant HSA or BSA in 100 μL/well in PBS overnight at 4° C. Plates were then blocked in PBS+0.02% casein solution and washed with PBS+0.05% Tween-20 following standard ELISA protocol. […] Plates were washed with PBS+0.05% Tween-20 following standard ELISA protocol, and goat anti-human IgG-Fc HRP conjugated secondary antibody (Pierce, #31413) diluted to 1:10,000 in assay buffer was added to plates and incubated for 1 hour at room temperature. Next, the plates were washed with PBS+0.05% Tween-20 following standard ELISA protocol, and then TMB substrate (BioFX Laboratories, catalog number TMBW-0100-01) was added to plates.
(§2) Reactions were stopped after approximately 5 minutes by adding 0.18 M ortho-phosphoric acid to each well and absorbance was read at 450 nm. […] For this method, samples diluted to 0.3 mg/mL were dispensed into the sample tray of a MicroCal VP-Capillary DSC with Autosampler (Malvern Instruments, Inc.), equilibrated for 5 minutes at 10° C. and then scanned up to 110° C. at a rate of 100° C. per/hour. A filtering period of 16 seconds was selected. Raw data was baseline corrected and the protein concentration was normalized. Origin Software 7.0 (Origin Lab Corporation, Northampton, MA) was used to fit the data to an MN2-State Model with an appropriate number of transitions.

[4] = target: T2, recombinant human TL1A; assay: cell-based or functional assay
[5] = target: T4, human serum albumin (human, UniProt P02768 25-609); assay: direct binding ELISA on plate-coated HSA (1 ug/mL), anti-human IgG-Fc HRP, OD450
T4 construct: also called HSA
Protocol: as §1, §2

Binder	binding result [1]	Kd [2] [nM]	koff [2] [s⁻¹]	kon [2] [M⁻¹ s⁻¹]	binding result [3]	NFκB Bioassay IC50 [4] [nM]	binding result [5]
[xTL1A]-0360 (antibody, human IgG1, kappa, V domains shown, bivalent disabled antibody, IgG1 effector-function-minimized/kappa) VH: not shown VL: DIQMTQSPSSLSASVGDRVTITCRASQSVSSYLAWYQQKPGKAPKLLIYDASNRATGVPSRFSGSGSGTDFTLTISSLQPEDFATYYCQQRSNWPWTFGQGTKVEIKR	no binding (tested: 20 ug/mL)	–	–	–	–	–	–
TL1A-0368 (bispecific antibody, not shown: human IgG1 constant region with effector-minimizing, KiH and LS mutations) heavy 1: QVQLVQSGAEVKKPGASVKVSCKASGYDYTYYGISWVRQAPGQGLEWMGWISTYNTGTHYAPSLQGRVTMTTDTSTSTAYMELRSLRSDDTAVYYCARESYYGSGAFRGGMDVWGQGTTVTVSSASTKGPSVFPLAPSSKSTSGGTAALGCLVKDYFPEPVTVSWNSGALTSGVHTFPAVLQSSGLYSLSSVVTVPSSSLGTQTYICNVNHKPSNTKVDKKVEPKSCDKTHTCPPCPAPEAAGAPSVFLFPPKPKDTLMISRTPEVTCVVVDVSHEDPEVKFNWYVDGVEVHNAKTKPREEQYNSTYRVVSVLTVLHQDWLNGKEYKCKVSNKALPAPIEKTISKAKGQPREPQVCTLPPSREEMTKNQVSLWCLVKGFYPSDIAVEWESNGQPENNYKTTPPVLDSDGSFFLYSKLTVDKSRWQQGNVFSCSVLHEALHSHYTQKSLSLSPGK heavy 2: QVQLVQSGAEVKKPGASVKVSCKASGYTFTSYGISWVRQAPGQGLEWMGWISAYNGNTNYAQKLQGRVTMTTDTSTSTAYMELRSLRSDDTAVYYCARESYYGSEAFRAGMDVWGQGTTVTVSS light: not shown	–	0.242	4.61e-05	191000	no binding (tested: 1e-6 M)	1.56	no binding (tested: 1e-6 M)
TL1A-0371 (bispecific antibody, also called TL1A-0371 MBsAb; not shown: human IgG1 constant region with effector-minimizing, KiH and LS mutations) heavy 1: QVQLVQSGAEVKKPGASVKVSCKASGYDYTYYGISWVRQAPGQGLEWMGWISTYNTGTHYAPSLQGRVTMTTDTSTSTAYMELRSLRSDDTAVYYCARESYYGSGAFRGGMDVWGQGTTVTVSSASTKGPSVFPLAPSSKSTSGGTAALGCLVKDYFPEPVTVSWNSGALTSGVHTFPAVLQSSGLYSLSSVVTVPSSSLGTQTYICNVNHKPSNTKVDKKVEPKSCDKTHTCPPCPAPEAAGAPSVFLFPPKPKDTLMISRTPEVTCVVVDVSHEDPEVKFNWYVDGVEVHNAKTKPREEQYNSTYRVVSVLTVLHQDWLNGKEYKCKVSNKALPAPIEKTISKAKGQPREPQVCTLPPSREEMTKNQVSLWCLVKGFYPSDIAVEWESNGQPENNYKTTPPVLDSDGSFFLYSKLTVDKSRWQQGNVFSCSVLHEALHSHYTQKSLSLSPGK heavy 2: not shown light: not shown	–	0.261	4.36e-05	168000	no binding (tested: 1e-6 M)	1.37	no binding (tested: 1e-6 M)
TL1A-0370 (bispecific antibody, also called TL1A-0370 MBsAb; not shown: human IgG1 constant region with effector-minimizing, KiH and LS mutations) heavy 1: QVQLVQSGAEVKKPGASVKVSCKASGYDYTYYGISWVRQAPGQGLEWMGWISTYNTGTHYAPSLQGRVTMTTDTSTSTAYMELRSLRSDDTAVYYCARESYYGSGAFRGGMDVWGQGTTVTVSSASTKGPSVFPLAPSSKSTSGGTAALGCLVKDYFPEPVTVSWNSGALTSGVHTFPAVLQSSGLYSLSSVVTVPSSSLGTQTYICNVNHKPSNTKVDKKVEPKSCDKTHTCPPCPAPEAAGAPSVFLFPPKPKDTLMISRTPEVTCVVVDVSHEDPEVKFNWYVDGVEVHNAKTKPREEQYNSTYRVVSVLTVLHQDWLNGKEYKCKVSNKALPAPIEKTISKAKGQPREPQVCTLPPSREEMTKNQVSLWCLVKGFYPSDIAVEWESNGQPENNYKTTPPVLDSDGSFFLYSKLTVDKSRWQQGNVFSCSVLHEALHSHYTQKSLSLSPGK heavy 2: QVQLVQSGAEVKKPGASVKVSCKASGYTFTSYGISWVRQAPGQGLEWMGWISAYNGNTNYAQKLQGRVTMTTDTSTSTAYMELRSLRSDDTAVYYCARESSYGSEAFRAGMDVWGQGTTVTVSS light: not shown	–	0.303	5.73e-05	190000	no binding (tested: 1e-6 M)	1.46	no binding (tested: 1e-6 M)
